According to the nanobody polyreactivity screen of Harvey et al. (2022):

Test: yeast display, Sf9 membrane polyspecificity reagent, FACS + sequencing; frameworks hold sequencing errors
Outline: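 Sorting gates, low and high (top ~1%), were placed on anti-HA fluorescence to track expression and on streptavidin fluorescence to track reagent binding. A clone's polyreactivity label is taken from the gate it came out of. The reagent was 10% biotinylated, detergent-solubilized Sf9 membrane, applied for 1 hour at 4 °C to galactose-induced yeast display cells.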

| Sequence | polyreactivity (PSR sort gate) |
| --- | --- |
| QVQLLESGGGLVQAGGSLRLSCAASGSTFTKYDMGWYRQAPGKERELVAAIRSGGDTNYADSVKGRFTISLDNAKNTVYLQMNSLNPEDTAVYYLAAARGPTNHTSYPWYEYDYWGQCTQVTVSS | low polyreactivity |
| QVQLLESGGGLVQAGGSLRLSCAASGSTIVSYDMGWYRQAPGKERELVAAITYDGDSTYYADSVKGRFTISRDNAKNTVYLQMNSLKPEDTAVYYCAAEPGEDLKFRGGFEYWGQGTQVTVSS | low polyreactivity |
| QVQLLESGGGLVQAGGSLRLSCAASGYTFQIKAMGWYRQAPGKERELVAAITSGGRTYYADSVKGLFTISRDNAKNTVYLQMNSLKPEDTAVYYCNKVPRRGVDYWGQGTQVTVSS | low polyreactivity |
| QVQLLESGGGLVQAGGSLRLSCAPSGRTFVFNGRGWYRPATAKERELVAAINRSGGSTYYAVSVKGRFTISRDNGKNTVYLQMNSLKPEDTAVYYCLIQHNGLGYWGQGTQVTVSS | low polyreactivity |
| QVQLLESGGGLVQAGGSLRLSCAPSGSTFGYYAMGWYRPAPGKERELVAAITSGGRTYYADSVKGRFTISRDNAKNTVYLQMISLKPEETAVYYFAAIYRTYNKFDYWGQGTQVTVSS | high polyreactivity |
| QVQLLESGGGLVQAGGSLRLSCASSGRTFLTNAMGWYRQAPGKERELVAVITDGDTTYADSVKGRFTISRDNAKNTVYLLMNSLKPEDSAVYYCAADENYWSAGYDSWGLGTQVTVSS | low polyreactivity |
| QVQLLESGGGLVQAGGSLRLSCDASGFTFVAYAMGWYRQAPGKERELVAVISRGGSTYYADSVKGRFTISRDNAKNTVYLQMNSLKPEDTAVYYCAATFIHSYGKFFYWGQGTQVTLSS | low polyreactivity |
| QVQLLESGGGLVQAGGSLRLSCSASGITFFVYDMGWYRQAPGKERDLVAAITWAGDSTYYADSVKGRFTISRDNAKNTVYLQMNSLKPEDTAVYYCAAQFDVYYSRQPYDYNRSGYWGQGTQVTVSS | low polyreactivity |
| QVQLLESGGGLVQAGGSLRLSFAASGLTLGAYAMVWYRQAPGKERELVAAITNGGSTDYADSVKGRFTISRDNAKITVYLQMNSLKPEDTAVYYCAKDISRPDRGMDYWGQGTQVTVSS | low polyreactivity |
| QVQLLESGGGLVQAGGSLRLTCAASGSTFPDYAMGWYRQAPGKEREFVASITWSDGSTYYADSVKGRFTISRDNAKNSVYLQMNRLKQEDTAVYYCNADYVYYYIPVVYEYDYWGQGTQVTVSS | high polyreactivity |
| QVQLLESGGGLVQAGGTLPLSCAASGRTFKYYAMGWYRQAPGKERELVAGISSTGRTNYADSVKGRFTISRDNAKNTVYLEMNSLKPEDTAVYYCNAERKSFGKFVYWGQGTLVTVSS | high polyreactivity |
| QVQLLESGGGLVQAGGTLRLSCAASGSTFAKYGMGWYRQAPGKERELVAAISRSGGRTYYADSVKGRFTISRDNAKNTVYLQMNSLKPEDTAVYYCATDGIRLTRHRDYDYWGQGTQVTVSS | low polyreactivity |
| QVQLLESGGGLVQSGGSLRVSCAASGRNFGRYDMGWYRQAPGKERELVATISSRGGNTYYADSVKGRVTISRDNAMNTVYLQMNSLTPDDTAVYYCAAQTYKWYDWGQGTQVTVSS | high polyreactivity |
| QVQLLESGGGLVQSGGSLRVSCAASGSTFYAYSMGWYRQAPGKERELVAALDSGGSTYADSVKGRFPISRANAKHTVYLQMNSLKPEETAVYYCAADLITRSDYWWTGWIWEYDYWGQGTQVTVSS | low polyreactivity |
| QVQLLESGVGLVQAGGSLRLSCAASGFTFGYYAMGWYRQAPGKETELVAAISSSDGSTYYADSVKGRFTISRDNAKNTVYLQMNSLKPEDTAVYYCAAEYYSAVYIDEYWYDYWGQGTQVTVSS | high polyreactivity |
| QVQLLESGVGLVQAGGSLRLSCAASGNTFYHYAMGLYRQAPGKERELVAAISLSGGSTYYADSVKGRFTISRDNAKNTVYLQMNSLKPEDTAVYYCAADIFYYSSSYGYWGQGTQVTVST | low polyreactivity |
| QVQLLESGVGLVQAGGSLRLSCAASGTIFVDYAMGWYRQAPGKERQLVAAITSVGRTNYADSVKGRFTISRDNAKNTVYLQMNSLKPEDTAVYYCNKTRYTNYYTTTFDYWGQGTQVTVSS | low polyreactivity |
| QVQLLETGGGLVQAGRSHRLSCAASGLTFEDYAMGWYRQAPGKESELVAAITYSGGSTYYADSVKGRFTISRDNAKNSVYLQMMSLKPEDTAVSVCAAVSTLRPSWKRYYYWGQGNQVTVSS | high polyreactivity |
| QVQLLETGRGLFQEGGSLRLSCAASGGTFGAYVMGWYRQAPGKERELVAAISRSGTRTYYADSVKRRFTISRDNEKNTVYLQMNWLKPEDTAVYYCNAVGYTNRYDDWGQGTQVTVSS | high polyreactivity |
| QVQLLHSGGGKVQAGGRLRLSCAASGFIFCYYAMGWYRQAPGKERELVATISSGGNTYYADSVKGRFTISRDNAKNTVYLQMNSLKPEDTAVYYCAARWGVRPFYSTQYRYYYWGQGTQVTVSS | high polyreactivity |
| QVQLLQTGGGLVQAGGSLRLSCAASGSNFVIYAMGWYIQAPWNERELVATISGGGRTNYADSLKGRFTISRDNAKNTVYLQMNSLKPEDTAVYYCNGDQYGSYLGVGFDYWGQGTQVTVSS | high polyreactivity |
| QVQLQDSCGGLVQAGGSLRLNCATSGTIFVLWYMGWYRQAPGKERELVATINHGANTYSADSVKGRFTINRDNGNSTVYLQMNSLQPEDTAVYYCAVYAIIVWGLGYWGQGTQVTVSS | high polyreactivity |

| Sequence | polyreactivity (PSR sort gate) |
| --- | --- |
| QVQLQDSGGGLVQAGGSLRLNCATSGTIFVLWYMGWYRQAPGKERELVATINDGANTYYADSVKGRFTINRDNAYSTVYLKMNSLKPEDTAVYYCAVYAIIVWGLGYWGQGTQVTVSS | high polyreactivity |
| QVQLQDSGGGLVQAGGSLRLSCAASGTISYRYRMGWYRQAPRKELELVAGISFGSITYYADSVKGRFTISRDNAKNTVYLQMNSLKPEDIAVYYCAVYQKSYRFFPYWGQGTQVTVSS | high polyreactivity |
| QVQLQDSGGGLVQAGGSLRLSCAASGTIVTARFMGWYRQAPGKERELVATITDGGNTNHADSVKGRFTISRDNAKNTVYLQMNSLKPEDAAVYYCAAGEVDNDTLLYWGQGSQVTVSS | low polyreactivity |
| QVQLQECGGGLVQAGRSLRLSCAASGTFSNSVKWLYCQAPGKEREFVATIGVGGSTNYADSVKGRFTISRDNAKYTVYLQMNSLKPEDTGVYHCAGYGAASNFHYDRGQGTQVTVSS | low polyreactivity |
| QVQLQEGGGGLVQAGGSLRLSCAASGYIFNGDWMGWYRQAPGKERELVATINYGATTNYADSVKGRFTISRDNAKNTVYLQMNSLKPEDTAVYYCAVGGHGAQLYVYWGQGTQVTVSN | high polyreactivity |
| QVQLQEIVGGLVQAGGSLRLSCAASGNNFDADIMGLYRQAPGKERELVASVTDGGSTNYADSVKGRFTISRDNAKNSVYLQMNILKPEDTAVYYCAAIVYPDILTYFDYDYDYFYWGQGTQVTVGS | low polyreactivity |
| QVQLQERAAWCRRAGSLRLSCAASGNISDYYFMGWYRQAPGKERERVAAIAPGSKTYYADSVKGRFTISRDNAKNTVYLQMNSLKPEDTAVCFCAANSTQYTWFDYWGQGTQVPVSS | low polyreactivity |
| QVQLQESASGLVQAGGSLRLSCAASGAIFPAYLMGWYRQAPGKERELVAGISYGSITYCADSVKGRFNISRDNAKNTVYLQMNSLKPEDTAVYYCAKDIGVRRRDYEDYEYWGQGTQVTVSS | low polyreactivity |
| QVQLQESCGALVQAGGTLRLSCAASGSIFEQLDMGWNRQAPGKELEFVAAIGTGSTTYYADSVKGRFSISRDNAKNTVYLQRNSLKPEDTAVYYCAVTYSVYLPFRYWGQGTQVTVSS | high polyreactivity |
| QVQLQESCGGLVQAGGSLCLSCAASGTIFFDGDMGWYRQAPGKEREFVAAINPGGSAYYADSVKGRLPLAAITHTVYLQMNSLKPEDTAVYYCAAKLFDVYGYYYWGQGTHVTVSS | low polyreactivity |
| QVQLQESCGGLVQAGGSQRLSCAASAYIFYFQYMGWYRQAPGKEREFVAAISDGANTNYADSVKGRFTISRDNAKNTEYLQMNSLKPEDTAVYYCAVYADENFYYIYWGQGTEVTVSS | low polyreactivity |
| QVQLQESDGGLVQAGGSLRLSCAASGNIFPTDRMGRYRQAPAKVLEFVATISHGGSTNYADSVKGRFTISRDNATNTVYLQMNSLKPEDTAVYYCAVWSLGRCRHYYWGQGTHVTVSS | low polyreactivity |
| QVQLQESDGGLVQAGGSLRLSCAASGSISPQYYMGWYRQAPGKEREYVAISKGTTTYSADSVKGRLTISRVNAKNTVYLQMNSLKPEDTAVYCCAAGRWLQKVHAYWDQGTQVTVSS | low polyreactivity |
| QVQLQESDGGLVQAGGSLRLTCAASGSISPQYYMGWYRQAPGKEREFVAISKGTTTYYADSVKGRLTISRVNANNTVYLQMNSLKPEDTAVYCCAAGRWLQKVHAYWDQGTQVTVSS | low polyreactivity |
| QVQLQESGAGLVQAGGDLRLSCAASGNIFRDYIMGWYRQAPGKEREFVAGIDRGANTNYADSVKGRFTISRDNAKNTVYLQMNSLKPEDTAVYYCAVHTAIVPDFIYWGQGTQVTVSS | low polyreactivity |
| QVQLQESGDGLVQAGGSLRLSSAASGTIFSDYGMGGYRQAPGKERELLAGISDGCNTNYTDSVKGRFTISRDNAHRVSADEQPETGGYRGVLLGGSERWLIFYVYWGQGTQVTVSC | high polyreactivity |
| QVQLQESGDGLVQAGGSLRLSSAASGTIFSDYGMGWYRQAPGKERELLAGISDGCNTNYTDSVKGRFTISRDNAHRVSADDQPETGGYRGVLLRGSERWLLFYVYWGLGTQVTVSS | high polyreactivity |
| QVQLQESGDGLVQAGGSLRLSSGASGTIVSDYGMGGYRQAPGKERELLAGISDGCNTNYTDSVKGRFTISRDNAHRVSADEQPETGGYLGVLLRGTERWLHFYVYWGQGTQVTVSS | high polyreactivity |
| QVQLQESGDGLVQALGSLRLSCAASGYISGYYYMGWYRQAPGKERELVAGIDAFGSSTNYADCVKGRFTISRDNAKNTVYLQMNSPKPVDTAVYYCAAEYDDWDYHWYWGEGTQVTVSS | low polyreactivity |
| QVQLQESGDGLVQAVGSLRLSCAARGYISGYYYMGWYRQAPGKERELVAGIDAFGSSTNYADCVKGRFTISRDNAKNTVYLQMNSLKPEDTAVYYCAARPDGDRLFSYWGQGTQVTVSS | low polyreactivity |
| QVQLQESGGCLVQAGGSLRLSCAASGTNLYSLGMGWSRQAPGKRREFVASITWGTTTNYAESENGRFTISRDNAKKTVYPQRNSLKPEDTAVYYCAAPPFGDSSYHYWGQATQVTVSS | low polyreactivity |
